The series can be described thus: protein stability index of a GFP-peptide fusion (GPS, HEK-293T) (PSI 1-6); higher = more stable. The following applies: c terminus: a fixed tail appended.

± gives the standard deviation.
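Note: 24-mer peptide tiles fused after GFP, lentivirally expressed, FACS-sorted into six equal bins by GFP/DsRed ratio, decoded by Illumina sequencing, PSI is the read-weighted mean bin number.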

Regarding AAEQAERSQSSIVPEEEQAANKGE [SMARCE1], the protein stability index came to 5.51 ± 0.3 (treatment: DMSO) and 5.54 ± 0.19 (treatment: MLN4924 1 uM, 8 h).

AAGMRFPLPEAIDPDVGVNSLQSY [PCDHGA10]: the protein stability index is, setting by setting: (treatment: DMSO) 3.9 ± 0.2; (treatment: MLN4924 1 uM, 8 h) 4.12 ± 0.31.

As to AAKRMRLEIYQSSQDEPIALDKQH [NOL4L], the protein stability index came out at 3.59 ± 0.27 (treatment: DMSO) and 3.88 ± 0.25 (treatment: MLN4924 1 uM, 8 h).

On to AALPLAAEETANLPPSPPPSPASE [MAP2], for which the protein stability index was determined as 5.27 ± 0.13 (treatment: DMSO) and 5.09 ± 0.18 (treatment: MLN4924 1 uM, 8 h).

As for AAQPMQPLPESLASLHPSVSPGSP [PLAGL1], the protein stability index runs as follows: (treatment: DMSO) 5.2 ± 0.12; (treatment: MLN4924 1 uM, 8 h) 5.17 ± 0.29.

AARISNKGKFSTDTKGKPTSRTQV [ZC2HC1A]: the protein stability index is 3.91 ± 0.38 (treatment: DMSO) and 4.19 ± 0.39 (treatment: MLN4924 1 uM, 8 h).

Regarding ADGLLQLGPLGSTAFLPDSKCLVD [GALNT9], the protein stability index (treatment: DMSO) stood at 3.97 ± 0.16 and the protein stability index (treatment: MLN4924 1 uM, 8 h) worked out at 4.09 ± 0.19.

Regarding ADKMTAEEVDQMFQFASIDVAGNL [MYL5], the protein stability index is, setting by setting: (treatment: DMSO) 4.35 ± 0.41; (treatment: MLN4924 1 uM, 8 h) 4.47 ± 0.2.

As for AEDLRMLDASGEKMNGSHRDQGSS [IKZF1], the protein stability index reads like this: (treatment: DMSO) 5.18 ± 0.43; (treatment: MLN4924 1 uM, 8 h) 5.34 ± 0.23.

AEEESSGGEEEDEDENIEVVYSKA [EIF5]: the protein stability index is, setting by setting: (treatment: DMSO) 5.22 ± 0.17; (treatment: MLN4924 1 uM, 8 h) 5.25 ± 0.16.

AEEKERRRKEYDALKAAKREQEKK [LRRC59]: the protein stability index reads like this: (treatment: DMSO) 5.31 ± 0.26; (treatment: MLN4924 1 uM, 8 h) 5.39 ± 0.12.

Regarding AEHWTKEHCGAVCFVKDNPQKSYF [WAS], the protein stability index (treatment: DMSO) is 2.92 ± 0.39 and the protein stability index (treatment: MLN4924 1 uM, 8 h) stood at 2.98 ± 0.23.

As to AEKRKRQAEIENKRRQLEDERRQL [PALM], the protein stability index runs as follows: (treatment: DMSO) 4.68 ± 0.5; (treatment: MLN4924 1 uM, 8 h) 4.94 ± 0.32.

Sequence AELNKEVSTNTAMIQTSKTEITEL [KRT13] displayed a protein stability index (treatment: DMSO) of 5.26 ± 0.14 and a protein stability index (treatment: MLN4924 1 uM, 8 h) of 5.18 ± 0.079.

On to AERVTLADFKGVLQRPSYKFFFKS [DVL3], for which the protein stability index reads like this: (treatment: DMSO) 2.29 ± 0.3; (treatment: MLN4924 1 uM, 8 h) 2.63 ± 0.44.

As to AGADLPPPKIRLKPHRLGDSEHEP [PWWP2B], the protein stability index stood at 4.83 ± 0.23 (treatment: DMSO) and 4.91 ± 0.28 (treatment: MLN4924 1 uM, 8 h).

For the sequence AGNRNSMVIHIPEEPRPSRPRYKA [KCNK9], the protein stability index runs as follows: (treatment: DMSO) 4.14 ± 0.35; (treatment: MLN4924 1 uM, 8 h) 4.24 ± 0.13.

Take AGPNGTLFVADAYKGLFEVNPWKR [APMAP]: the protein stability index (treatment: DMSO) was 2.39 ± 0.28 and the protein stability index (treatment: MLN4924 1 uM, 8 h) came to 2.72 ± 0.31.

Take AIIISTIVLDRALHIPMYFFLAIL [OR10K2]: the protein stability index reads like this: (treatment: DMSO) 3.04 ± 0.47; (treatment: MLN4924 1 uM, 8 h) 3.04 ± 0.33.

In turn, AKALNRPPTYPTKYFGCELGAQTQ [EIF5] had a protein stability index (treatment: DMSO) of 2.71 ± 0.23 and a protein stability index (treatment: MLN4924 1 uM, 8 h) of 3.15 ± 0.13.

As to AKEMSVPFYTSRIDEVLLHQDVDL [GFOD1], the protein stability index by setting is: (treatment: DMSO) 3.74 ± 0.59; (treatment: MLN4924 1 uM, 8 h) 3.88 ± 0.35.

For the sequence AKRNRLAPAHVDEQVFLYENARSG [ZBED1], the protein stability index runs as follows: (treatment: DMSO) 4.3 ± 0.59; (treatment: MLN4924 1 uM, 8 h) 4.43 ± 0.25.

On to ALADVEVKYIVERTMLDFPQHVSS [NLN], for which the protein stability index is, setting by setting: (treatment: DMSO) 2.38 ± 0.36; (treatment: MLN4924 1 uM, 8 h) 2.39 ± 0.16.

Turning to ALGGLQSWRVGVVRVRQDSGAEGH [TRIM35], the protein stability index reads like this: (treatment: DMSO) 2.95 ± 0.46; (treatment: MLN4924 1 uM, 8 h) 3.31 ± 0.38.

Sequence ALKLIIRLFLVEDLVDSLKLAVFM [RTN3] returned a protein stability index (treatment: DMSO) of 3.69 ± 0.17.

ALLADEERCLSCILAQQPDRLRDE [TRADD]: the protein stability index was determined as 4.28 ± 0.2 (treatment: DMSO) and 4.3 ± 0.12 (treatment: MLN4924 1 uM, 8 h).

Regarding ALVFGVNTFIALALQTLLTLIVVD [SLC19A2], the protein stability index was 3.33 ± 0.55 (treatment: DMSO) and 3.37 ± 0.58 (treatment: MLN4924 1 uM, 8 h).

Consider ALVGCVISDNPERYSTNLSNHVDD [EDNRA], for which the protein stability index reads like this: (treatment: DMSO) 3.94 ± 0.44; (treatment: MLN4924 1 uM, 8 h) 4.16 ± 0.16.

Take AMSTLGVIEAIAQITVKALPKPPG [PTPRD]: the protein stability index was 2.21 ± 0.17 (treatment: DMSO) and 2.16 ± 0.26 (treatment: MLN4924 1 uM, 8 h).

Consider ANAHTYHINSISVNSDYETYMSAD [PPP2R2B], for which the protein stability index by setting is: (treatment: DMSO) 3.81 ± 0.24; (treatment: MLN4924 1 uM, 8 h) 3.8 ± 0.22.

For the sequence APAKYTVFDAEGYVKPQSCIDIVI [MOSPD3], the protein stability index by setting is: (treatment: DMSO) 2.83 ± 0.84; (treatment: MLN4924 1 uM, 8 h) 2.5 ± 1.3.

For the sequence APFGRISDARVVKDMATGKSKGYG [TIA1], the protein stability index was found to be 4.47 ± 0.17 (treatment: DMSO) and 4.35 ± 0.18 (treatment: MLN4924 1 uM, 8 h).

Regarding APRGKNGFTPLHMAVDKDTTNVGR [FEM1A], the protein stability index was 4.37 ± 0.19 (treatment: DMSO) and 4.44 ± 0.18 (treatment: MLN4924 1 uM, 8 h).

On to AQFRLLSEVEELNMSLTALREKLL [TEKT4], for which the protein stability index runs as follows: (treatment: DMSO) 2.23 ± 0.43; (treatment: MLN4924 1 uM, 8 h) 2.62 ± 0.45.

For the sequence AQHSLMDGYCMFNHVAVAARYAQQ [HDAC6], the protein stability index is 2.1 ± 0.25 (treatment: DMSO) and 1.92 ± 0.39 (treatment: MLN4924 1 uM, 8 h).

Turning to AQRHRELYLRVELSDVQNPAISIT [HACD3], the protein stability index is, setting by setting: (treatment: DMSO) 2.16 ± 0.34; (treatment: MLN4924 1 uM, 8 h) 2.18 ± 0.15.

Take ARIAIRGTIKKIIHQETVSKNGNG [PCMTD2]: the protein stability index reads like this: (treatment: DMSO) 3.01 ± 0.22; (treatment: MLN4924 1 uM, 8 h) 3.21 ± 0.27.

Source of the values: the supplement of paper PMC10567573.
